Measurements taken from publication PMC3037364.

Target: TgAMA1, intact full-length integral membrane form (Toxoplasma gondii (endogenous in RH strain parasites)) (UniProt B6KAM0)
Sequence of UniProt B6KAM0 (B6KAM0 67-569): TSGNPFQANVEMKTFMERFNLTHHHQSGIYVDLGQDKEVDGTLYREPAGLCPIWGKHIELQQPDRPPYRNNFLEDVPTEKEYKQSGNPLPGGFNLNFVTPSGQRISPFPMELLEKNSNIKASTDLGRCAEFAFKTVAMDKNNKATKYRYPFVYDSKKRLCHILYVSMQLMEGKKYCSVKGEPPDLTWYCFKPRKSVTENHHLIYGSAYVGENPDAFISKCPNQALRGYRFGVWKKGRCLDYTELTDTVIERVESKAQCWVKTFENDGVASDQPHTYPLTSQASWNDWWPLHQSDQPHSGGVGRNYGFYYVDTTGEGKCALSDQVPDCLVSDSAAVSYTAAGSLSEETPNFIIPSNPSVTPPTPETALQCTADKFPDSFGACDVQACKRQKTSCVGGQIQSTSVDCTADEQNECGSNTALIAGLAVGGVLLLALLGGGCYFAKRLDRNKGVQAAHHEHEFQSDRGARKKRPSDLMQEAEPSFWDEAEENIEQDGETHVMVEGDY

## GST-domain 3 (D3) of TgRON2 (domain or fragment)
  decrease in invasion efficiency of RHΔama1/AMA1-myc parasites (about 10% of wild-type TgAMA1 level) after pre-incubation with 2.5-5 µM GST-D3, relative to buffer control: 87%
